Patent publication CN117321082A (APOCOR LTD, dated 2023)

Columns and labels:
[1] = biological target: T1, 全长人KLRG1 (full-length human KLRG1 on stably transfected CHOK1 cells) (human, UniProt Q96E93 1-195); assay: FACS on CHOK1 cells expressing full-length human KLRG1, detected with anti-human IgG-Alexa 488
T1 construct: whole, on cells; the cell assays used full-length protein; also called hKLRG1; CHOK1-hKLRG1
T1 sequence (looked up): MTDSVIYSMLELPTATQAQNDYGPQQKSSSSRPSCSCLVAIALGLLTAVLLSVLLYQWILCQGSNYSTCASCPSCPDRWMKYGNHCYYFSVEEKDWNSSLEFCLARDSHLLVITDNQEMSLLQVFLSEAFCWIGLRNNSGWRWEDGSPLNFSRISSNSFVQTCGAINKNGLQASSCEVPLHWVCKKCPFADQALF

[2] = biological target: T1, 全长人KLRG1 (full-length human KLRG1 on …); assay: FACS competition on CHOK1-hKLRG1 cells; competitor 0.3 uM human E-cadherin-ECD-FC-biotin (Example 7)
[3] = biological target: T1, 全长人KLRG1 (full-length human KLRG1 on …); assay: FACS competition on CHOK1-hKLRG1 cells; competitor 0.3 uM human E-cadherin-ECD-FC-biotin, detected with streptavidin-Alexa 488

B1: PA015 (antibody, human IgG1, kappa, V domains shown)
VH: QVTLRESGPALVKPTQTLTLTCTVSGFSLSTFGMGVGWIRQPPGKALEWLAHIWWDDDKWYELALKSRLTISKDTSKNQVVLTITNMDPVDTATYYCARVIYYGSRSAYYSMDYWGQGTTVTVSS
VL: DVVMTQTPLSLSVTPGQPASISCKSSQSIVHSNAHTYLEWYLQKPGQSPQLLIYKVSNRFSGVPDRFSGSGSGTDFTLKISRVEAEDVGVYYCFQGSHVPVTFGQGTKLEIKR
notes: also called PA015抗体; 抗KLRG1抗体
B1 was tested, and the EC50 [1] was 1.33 nM, the IC50 [2] was 5.3 nM and the IC50 [3] was 8.05 nM.
